Here are results for three molecules from US20120141382, “APTAMER MODULATORS OF COMPLEMENT PROTEIN C3 AND BIOLOGICALLY ACTIVE PROTEOLYTIC PRODUCTS THEREOF” (Research Foundation of State University of New York at …, published 2012).

Data set [1] deals with T1, Complement C3 (Homo sapiens, UniProt P01024;P01024 P01024:23-667,P01024:672-1663). The experiment in a line: filter; 20 mM Tris-HCl pH 7.6, 150 mM NaCl, 10 mM MgCl2; does not compete with AptC3-1. The conditions noted are these: tags: Calbiochem; label: 32P-CTP uniform. The method, then:
(§1) Initially, RNA was heated to 65° C. for 10 minutes then switched to 37° C. for an additional 10 minutes before the addition of protein. The reactions were allowed to equilibrate for 15-20 minutes at ambient temperature before being subjected to Electrophoretic Mobility Shift Assay (“EMSA”) or filter binding.
(§2) For filter binding, the above-mentioned reaction mixture was immobilized on nitrocellulose (Millipore) using a manifold (Millipore) or a Bio-Dot SF (slot format) Microfiltration System (Bio-Rad, Hercules, Calif.). The nitrocellulose membrane was first soaked in binding buffer containing 20 mM Tris-Cl (pH 7.6), 150 mM NaCl, 10 mM MgCl₂. Nitrocellulose and two pieces of 3M Whatmann filter paper (3M) were assembled in the manifold as per company recommendations. Each well was washed with 1 ml of binding buffer. Samples were loaded in the wells and vacuum was applied to bind the complex, then each well was washed with 2 ml of binding buffer. The nitrocellulose membrane was then air dried and exposed to a phosphor screen (GE Healthcare) for 1 hour. The image was scanned using a Typhoon imager and ImageQuant software and the data was analyzed.

For data set [2], the target named is T2, Complement iC3b (Homo sapiens, UniProt P01024;P01024;P01024 P01024:23-667,P01024:749-1303,P01024:1321-1663). The experiment in a line: filter; no binding by filter assay and EMSA. The conditions noted are these: tags: Calbiochem; label: 32P-CTP uniform. The method, then: as §1, §2
T2 sequence (P01024 23-667, chain 1 of 3): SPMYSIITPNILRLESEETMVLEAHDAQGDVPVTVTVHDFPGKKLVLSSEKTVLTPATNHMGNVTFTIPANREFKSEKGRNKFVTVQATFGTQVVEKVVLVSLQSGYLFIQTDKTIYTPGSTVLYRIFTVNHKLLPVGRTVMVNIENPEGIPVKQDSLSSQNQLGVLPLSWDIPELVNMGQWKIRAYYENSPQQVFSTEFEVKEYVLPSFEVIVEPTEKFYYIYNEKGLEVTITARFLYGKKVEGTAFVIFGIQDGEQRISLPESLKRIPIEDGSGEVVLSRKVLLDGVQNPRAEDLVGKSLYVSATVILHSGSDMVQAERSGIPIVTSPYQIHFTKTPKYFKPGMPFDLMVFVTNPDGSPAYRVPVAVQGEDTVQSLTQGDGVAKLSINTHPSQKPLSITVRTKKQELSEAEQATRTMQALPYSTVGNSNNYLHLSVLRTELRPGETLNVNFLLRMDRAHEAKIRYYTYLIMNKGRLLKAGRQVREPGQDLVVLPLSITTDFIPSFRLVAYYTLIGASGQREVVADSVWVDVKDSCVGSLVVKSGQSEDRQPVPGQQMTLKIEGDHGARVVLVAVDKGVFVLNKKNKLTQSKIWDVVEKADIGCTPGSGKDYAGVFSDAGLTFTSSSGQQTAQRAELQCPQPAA
T2 sequence (P01024 749-1303, chain 2 of 3): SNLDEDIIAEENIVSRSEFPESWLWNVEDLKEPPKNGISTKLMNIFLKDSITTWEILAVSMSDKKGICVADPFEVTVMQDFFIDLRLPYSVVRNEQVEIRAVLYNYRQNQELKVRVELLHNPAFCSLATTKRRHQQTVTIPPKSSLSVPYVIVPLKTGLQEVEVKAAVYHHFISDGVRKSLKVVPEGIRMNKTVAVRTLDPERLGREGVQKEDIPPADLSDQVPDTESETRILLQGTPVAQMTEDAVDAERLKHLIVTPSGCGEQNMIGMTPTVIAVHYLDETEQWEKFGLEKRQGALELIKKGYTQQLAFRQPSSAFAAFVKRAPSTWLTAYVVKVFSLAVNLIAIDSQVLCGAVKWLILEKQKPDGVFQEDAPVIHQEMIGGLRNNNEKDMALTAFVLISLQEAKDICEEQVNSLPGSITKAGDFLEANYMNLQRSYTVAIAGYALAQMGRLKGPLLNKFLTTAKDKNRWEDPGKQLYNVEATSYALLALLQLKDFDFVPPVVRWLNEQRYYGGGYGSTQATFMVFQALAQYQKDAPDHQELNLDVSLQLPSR
T2 sequence (P01024 1321-1663, chain 3 of 3): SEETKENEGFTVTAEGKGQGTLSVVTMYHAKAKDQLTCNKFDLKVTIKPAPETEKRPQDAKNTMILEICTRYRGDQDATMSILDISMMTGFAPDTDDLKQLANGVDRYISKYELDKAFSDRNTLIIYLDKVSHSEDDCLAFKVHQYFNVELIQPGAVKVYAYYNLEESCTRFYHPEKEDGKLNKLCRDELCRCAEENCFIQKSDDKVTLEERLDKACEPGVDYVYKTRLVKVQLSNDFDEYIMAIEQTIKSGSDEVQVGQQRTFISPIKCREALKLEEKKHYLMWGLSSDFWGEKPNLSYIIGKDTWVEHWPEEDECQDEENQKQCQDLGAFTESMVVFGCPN
Data set [3] concerns the target T3, Complement C3b (Homo sapiens, UniProt P01024;P01024 P01024:23-667,P01024:749-1663). Put plainly: filter; 20 mM Tris-HCl pH 7.6, 150 mM NaCl, 10 mM MgCl2. Conditions: tags: Quidel; label: 32P-CTP uniform. The method, then: as §1, §2
Data set [4] addresses T1, Complement C3. The experiment in a line: EMSA; retarded band; 2.5 mM MgCl2 gel, 4 C. Conditions: tags: Calbiochem; label: 32P-CTP uniform; hairpin with apical loop and internal loop.
The target in data set [5] is T2, Complement iC3b. The experiment in a line: EMSA; retarded band. Conditions: tags: Calbiochem; label: 32P-CTP uniform; hairpin with apical loop and internal loop.
The target of data set [6] is T3, Complement C3b. Put plainly: EMSA; retarded band. Conditions: tags: Quidel; label: 32P-CTP uniform; hairpin with apical loop and internal loop.
For data set [7], the target named is T2, Complement iC3b. The experiment in a line: filter; 20 mM Tris-HCl pH 7.6, 150 mM NaCl, 10 mM MgCl2; minimized version may have been used. Conditions: tags: Calbiochem; label: 32P-CTP uniform. As for the experimental part:
as §1, §2

Data set [8] addresses T1, Complement C3. The data set is described as above. The conditions noted are these: tags: Calbiochem; label: 32P-CTP uniform. As for the experimental part: as §1, §2
Data set [9] addresses T3, Complement C3b. The data set is described as above. Conditions: tags: Quidel; label: 32P-CTP uniform. As for the experimental part:
as §1, §2

T1 sequence (P01024 23-667, chain 1 of 2): as the sequence (P01024 23-667, chain 1 of 3) above
T1 sequence (P01024 672-1663, chain 2 of 2): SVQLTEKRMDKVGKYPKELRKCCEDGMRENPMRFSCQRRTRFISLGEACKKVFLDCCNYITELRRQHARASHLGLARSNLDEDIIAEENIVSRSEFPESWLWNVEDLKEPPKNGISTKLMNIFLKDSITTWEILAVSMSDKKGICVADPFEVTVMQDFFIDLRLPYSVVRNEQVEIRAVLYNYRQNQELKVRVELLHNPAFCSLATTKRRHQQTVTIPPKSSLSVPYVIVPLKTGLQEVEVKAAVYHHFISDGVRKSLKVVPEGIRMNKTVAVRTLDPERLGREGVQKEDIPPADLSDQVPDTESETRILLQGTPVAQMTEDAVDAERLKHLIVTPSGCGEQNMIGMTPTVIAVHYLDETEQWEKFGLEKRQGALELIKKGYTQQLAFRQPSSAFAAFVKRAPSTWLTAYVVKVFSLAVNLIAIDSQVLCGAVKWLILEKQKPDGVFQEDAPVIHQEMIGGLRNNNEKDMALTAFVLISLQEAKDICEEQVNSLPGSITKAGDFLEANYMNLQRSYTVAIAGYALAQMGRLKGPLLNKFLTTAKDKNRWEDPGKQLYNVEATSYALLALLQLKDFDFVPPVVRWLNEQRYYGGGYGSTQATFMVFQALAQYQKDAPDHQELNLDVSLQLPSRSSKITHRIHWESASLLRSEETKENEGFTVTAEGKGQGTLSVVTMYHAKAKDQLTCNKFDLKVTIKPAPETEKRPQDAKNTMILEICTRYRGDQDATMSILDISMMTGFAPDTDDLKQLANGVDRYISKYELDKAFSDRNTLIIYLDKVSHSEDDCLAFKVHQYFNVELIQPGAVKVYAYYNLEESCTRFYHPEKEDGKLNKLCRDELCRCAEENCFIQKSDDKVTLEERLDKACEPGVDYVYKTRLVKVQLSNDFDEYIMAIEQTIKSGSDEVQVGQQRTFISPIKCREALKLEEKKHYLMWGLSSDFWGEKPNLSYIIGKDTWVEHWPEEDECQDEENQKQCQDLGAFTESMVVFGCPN
T3 sequence (P01024 23-667, chain 1 of 2): as the sequence (P01024 23-667, chain 1 of 3) above
T3 sequence (P01024 749-1663, chain 2 of 2): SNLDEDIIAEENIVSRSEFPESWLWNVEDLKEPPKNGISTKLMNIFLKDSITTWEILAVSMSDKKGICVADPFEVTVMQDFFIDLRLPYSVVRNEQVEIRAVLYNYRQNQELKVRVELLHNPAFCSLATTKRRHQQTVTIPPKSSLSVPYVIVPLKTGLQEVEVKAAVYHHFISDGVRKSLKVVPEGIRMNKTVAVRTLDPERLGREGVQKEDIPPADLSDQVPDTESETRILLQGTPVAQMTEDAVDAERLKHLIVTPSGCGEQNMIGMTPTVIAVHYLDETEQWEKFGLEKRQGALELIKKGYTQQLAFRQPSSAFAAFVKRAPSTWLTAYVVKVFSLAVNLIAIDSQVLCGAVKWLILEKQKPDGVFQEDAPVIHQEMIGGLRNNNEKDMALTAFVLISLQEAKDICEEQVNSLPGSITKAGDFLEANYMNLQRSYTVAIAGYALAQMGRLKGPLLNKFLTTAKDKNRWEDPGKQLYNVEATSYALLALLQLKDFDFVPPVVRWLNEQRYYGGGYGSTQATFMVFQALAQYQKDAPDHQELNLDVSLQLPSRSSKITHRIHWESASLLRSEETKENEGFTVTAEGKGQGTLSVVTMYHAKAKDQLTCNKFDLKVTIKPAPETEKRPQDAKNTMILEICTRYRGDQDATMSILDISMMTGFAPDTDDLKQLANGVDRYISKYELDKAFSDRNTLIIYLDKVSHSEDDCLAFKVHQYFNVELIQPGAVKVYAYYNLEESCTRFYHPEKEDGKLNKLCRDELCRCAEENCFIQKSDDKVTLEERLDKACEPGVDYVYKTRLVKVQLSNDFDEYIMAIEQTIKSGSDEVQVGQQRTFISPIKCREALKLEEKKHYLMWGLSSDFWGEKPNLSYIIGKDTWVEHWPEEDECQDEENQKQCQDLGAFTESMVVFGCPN

B1: AptC3-2 (ssRNA)
RNA: GGGAGAAUUCAACUGCCAUCUAGGCAAAUCCGCGAGCGCCGGUACCGGUGGCGCAUGCCCACACAGCACUAAACGAGUACUACAAGCUUCUGGACUCGGU
On to B1, for which the Kd with Complement C3 [1] and in the data set with Complement C3b [3] was 30 nM throughout. The binding result with Complement iC3b [2] is reported as “no binding”.

For the molecule GGGCUAGAAGAAUAUGACGGAUUGACCGUAUCAGGGUAGCCG (ssRNA) [MiniAptC3-1], the binding result with Complement C3 [4], in the data set with Complement iC3b [5] and with Complement C3b [6] was “binds” in each case.

B2: AptC3-1 (ssRNA)
RNA: GGGAGAAUUCAACUGCCAUCUAGGCUAGAAGAAUAUGACGGAUUGACCGUAUCAGGGUAGCCGAAGGGAGACAGAAGUACUACAAGCUUCUGGACUCGGU
Consider B2, for which the Kd in the data set with Complement iC3b [7], with Complement C3 [8] and with Complement C3b [9] was roughly 20 nM each time.
